In patent US20200199241A1 (Chugai, published 2020):
Where a chain is given by its changes, count along the chain named.

B1: IgG1-F890 (antibody)
heavy: QVQLQESGPGLVKPSETLSLTCAVSGHSISHDHAWSWVRQPPGEGLEWIGFISYSGITNYNPSLQGRVTISRDNSKNTLYLQMNSLRAEDTAVYYCARSLARTTAMDYWGEGTLVTVSSASTKGPSVFPLAPSSKSTSGGTAALGCLVKDYFPEPVTVSWNSGALTSGVHTFPAVLQSSGLYSLSSVVTVPSSSLGTQTYICNVNHKPSNTKVDKKVEPKSCDKTHTCPPCPAPELLGGPSVFLFPPKPKDTLYISRTPEVTCVVVDVSHEDPEVKFNWYVDGVEVHNAKTKPREEQYNSTYRVVSVLTVLHQDWLNGKEYKCKVSNKALPAPIEKTISKAKGQPREPQVYTLPPSRDELTKNQVSLTCLVKGFYPSDIAVEWESNGQPENNYKTTPPVLDSDGSFFLYSKLTVDKSRWQQGNVFSCSVMHEALHYHVTQKSLSLSP
light: not shown
notes: copies: 2 + 2
B2: IgG1-F746 (antibody)
heavy: B1 heavy with P240D, T252H, V438Y
light: not shown
notes: EU numbering; copies: 2 + 2
B3: IgG1-F747 (antibody)
heavy: B1 heavy with P240D, T252I, V438Y
light: not shown
notes: EU numbering; copies: 2 + 2
B4: IgG1-F749 (antibody)
heavy: B1 heavy with P240D, T252L, V438Y
light: not shown
notes: EU numbering; copies: 2 + 2
B5: IgG1-F750 (antibody)
heavy: B1 heavy with P240D, T252M, V438Y
light: not shown
notes: EU numbering; copies: 2 + 2
B6: IgG1-F751 (antibody)
heavy: B1 heavy with P240D, T252N, V438Y
light: not shown
notes: EU numbering; copies: 2 + 2
B7: IgG1-F753 (antibody)
heavy: B1 heavy with P240D, T252Q, V438Y
light: not shown
notes: EU numbering; copies: 2 + 2
B8: IgG1-F756 (antibody)
heavy: B1 heavy with P240D, T252V, V438Y
light: not shown
notes: EU numbering; copies: 2 + 2
B9: IgG1-F757 (antibody)
heavy: B1 heavy with P240D, T252W, V438Y
light: not shown
notes: EU numbering; copies: 2 + 2
B10: IgG1-F758 (antibody)
heavy: B1 heavy with P240D, T252Y, V438Y
light: not shown
notes: EU numbering; copies: 2 + 2
B11: IgG1-F762 (antibody)
heavy: B1 heavy with L237K, S241K, N288E, T309Q, Q313A, V438Y
light: not shown
notes: EU numbering; copies: 2 + 2
B12: IgG1-F763 (antibody)
heavy: B1 heavy with L237R, S241K, N288E, T309Q, Q313A, V438Y
light: not shown
notes: EU numbering; copies: 2 + 2
B13: IgG1-F764 (antibody)
heavy: B1 heavy with P240D, Y254M, T309Q, Q313A, V438Y
light: not shown
notes: EU numbering; copies: 2 + 2
B14: IgG1-F765 (antibody)
heavy: B1 heavy with P240D, T309Q, L311E, Q313A, V438Y
light: not shown
notes: EU numbering; copies: 2 + 2
B15: IgG1-F766 (antibody)
heavy: B1 heavy with Y254M, T309A, L311E, Q313A, V438Y
light: not shown
notes: EU numbering; copies: 2 + 2
B16: IgG1-F767 (antibody)
heavy: B1 heavy with Y254M, T309Q, L311E, Q313A, V438Y
light: not shown
notes: EU numbering; copies: 2 + 2
B17: IgG1-F768 (antibody)
heavy: B1 heavy with Y254M, T309A, L311E, Q313H, V438Y
light: not shown
notes: EU numbering; copies: 2 + 2
B18: IgG1-F769 (antibody)
heavy: B1 heavy with Y254M, T309Q, L311E, Q313H, V438Y
light: not shown
notes: EU numbering; copies: 2 + 2
B19: IgG1-F770 (antibody)
heavy: B1 heavy with T258A, V438Y
light: not shown
notes: EU numbering; copies: 2 + 2
B20: IgG1-F771 (antibody)
heavy: B1 heavy with E274A, V438Y
light: not shown
notes: EU numbering; copies: 2 + 2
B21: IgG1-F772 (antibody)
heavy: B1 heavy with K276A, V438Y
light: not shown
notes: EU numbering; copies: 2 + 2
B22: IgG1-F773 (antibody)
heavy: B1 heavy with V284A, V438Y
light: not shown
notes: EU numbering; copies: 2 + 2
B23: IgG1-F774 (antibody)
heavy: B1 heavy with N288A, V438Y
light: not shown
notes: EU numbering; copies: 2 + 2
B24: IgG1-F775 (antibody)
heavy: B1 heavy with K340A, V438Y
light: not shown
notes: EU numbering; copies: 2 + 2
B25: IgG1-F776 (antibody)
heavy: B1 heavy with K342A, V438Y
light: not shown
notes: EU numbering; copies: 2 + 2
B26: IgG1-F777 (antibody)
heavy: B1 heavy with E347A, V438Y
light: not shown
notes: EU numbering
B27: IgG1-F779 (antibody)
heavy: B1 heavy with N363A, V438Y
light: not shown
notes: EU numbering; copies: 2 + 2
B28: IgG1-F780 (antibody)
heavy: B1 heavy with Q364A, V438Y
light: not shown
notes: EU numbering; copies: 2 + 2
B29: IgG1-F781 (antibody)
heavy: B1 heavy with S377A, V438Y
light: not shown
notes: EU numbering; copies: 2 + 2
B30: IgG1-F782 (antibody)
heavy: B1 heavy with Y393A, V438Y
light: not shown
notes: EU numbering; copies: 2 + 2
B31: IgG1-F783 (antibody)
heavy: B1 heavy with D415A, V438Y
light: not shown
notes: EU numbering; copies: 2 + 2
B32: IgG1-F784 (antibody)
heavy: B1 heavy with L311A, V438Y
light: not shown
notes: EU numbering; copies: 2 + 2
B33: IgG1-F785 (antibody)
heavy: B1 heavy with L311H, V438Y
light: not shown
notes: EU numbering; copies: 2 + 2
B34: IgG1-F786 (antibody)
heavy: B1 heavy with S256T, N288E, T309Q, Q313A, V438Y
light: not shown
notes: EU numbering; copies: 2 + 2
B35: IgG1-F787 (antibody)
heavy: B1 heavy with S256T, T309Q, L311E, Q313A, V438Y
light: not shown
notes: EU numbering; copies: 2 + 2
B36: IgG1-F788 (antibody)
heavy: B1 heavy with N317A, V438Y
light: not shown
notes: EU numbering; copies: 2 + 2
B37: IgG1-F789 (antibody)
heavy: B1 heavy with N317D, V438Y
light: not shown
notes: EU numbering; copies: 2 + 2
B38: IgG1-F790 (antibody)
heavy: B1 heavy with N317E, V438Y
light: not shown
notes: EU numbering; copies: 2 + 2
B39: IgG1-F792 (antibody)
heavy: B1 heavy with N317G, V438Y
light: not shown
notes: EU numbering; copies: 2 + 2
B40: IgG1-F793 (antibody)
heavy: B1 heavy with N317I, V438Y
light: not shown
notes: EU numbering; copies: 2 + 2
B41: IgG1-F794 (antibody)
heavy: B1 heavy with N317K, V438Y
light: not shown
notes: EU numbering; copies: 2 + 2
B42: IgG1-F795 (antibody)
heavy: B1 heavy with N317L, V438Y
light: not shown
notes: EU numbering; copies: 2 + 2
B43: IgG1-F796 (antibody)
heavy: B1 heavy with N317M, V438Y
light: not shown
notes: EU numbering; copies: 2 + 2
B44: IgG1-F798 (antibody)
heavy: B1 heavy with N317Q, V438Y
light: not shown
notes: EU numbering; copies: 2 + 2
B45: IgG1-F799 (antibody)
heavy: B1 heavy with N317R, V438Y
light: not shown
notes: EU numbering; copies: 2 + 2
B46: IgG1-F800 (antibody)
heavy: B1 heavy with N317S, V438Y
light: not shown
notes: EU numbering; copies: 2 + 2
B47: IgG1-F801 (antibody)
heavy: B1 heavy with N317T, V438Y
light: not shown
notes: EU numbering; copies: 2 + 2
B48: IgG1-F731 (antibody)
heavy: B1 heavy with Y254M, T309A, Q313H, V438Y
light: not shown
notes: EU numbering; copies: 2 + 2
B49: IgG1-F732 (antibody)
heavy: B1 heavy with Y254M, T309Q, Q313H, V438Y
light: not shown
notes: EU numbering; copies: 2 + 2
B50: IgG1-F733 (antibody)
heavy: B1 heavy with L330E, V438Y
light: not shown
notes: EU numbering; copies: 2 + 2
B51: IgG1-F734 (antibody)
heavy: B1 heavy with G238D, L330E, V438Y
light: not shown
notes: EU numbering; copies: 2 + 2
B52: IgG1-F736 (antibody)
heavy: B1 heavy with S269M, L330E, V438Y
light: not shown
notes: EU numbering; copies: 2 + 2
B53: IgG1-F737 (antibody)
heavy: B1 heavy with S269L, L330E, V438Y
light: not shown
notes: EU numbering; copies: 2 + 2
B54: IgG1-F738 (antibody)
heavy: B1 heavy with P240D, T309P, V438Y
light: not shown
notes: EU numbering; copies: 2 + 2
B55: IgG1-F739 (antibody)
heavy: B1 heavy with T309P, Q313A, V438Y
light: not shown
notes: EU numbering; copies: 2 + 2
B56: IgG1-F740 (antibody)
heavy: B1 heavy with T309P, Q313H, V438Y
light: not shown
notes: EU numbering; copies: 2 + 2
B57: IgG1-F741 (antibody)
heavy: B1 heavy with P240D, T252A, V438Y
light: not shown
notes: EU numbering; copies: 2 + 2
B58: IgG1-F744 (antibody)
heavy: B1 heavy with P240D, T252F, V438Y
light: not shown
notes: EU numbering; copies: 2 + 2
B59: IgG1-F745 (antibody)
heavy: B1 heavy with P240D, T252G, V438Y
light: not shown
notes: EU numbering; copies: 2 + 2

Each binder was assayed against T1, soluble human FcRn complexed with β2-microglobulin (human, UniProt P61769 21-119, limits assumed) (assay: Biacore SPR, pH 7.0;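 also: test antibodies captured on a Protein L chip with human FcRn flowed over as analyte, KD obtained as the ratio of dissociation to association rate constants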).
T1 construct: also called hFcRn
T1 sequence (chain, as listed by the source limits assumed, chain 1 of 2): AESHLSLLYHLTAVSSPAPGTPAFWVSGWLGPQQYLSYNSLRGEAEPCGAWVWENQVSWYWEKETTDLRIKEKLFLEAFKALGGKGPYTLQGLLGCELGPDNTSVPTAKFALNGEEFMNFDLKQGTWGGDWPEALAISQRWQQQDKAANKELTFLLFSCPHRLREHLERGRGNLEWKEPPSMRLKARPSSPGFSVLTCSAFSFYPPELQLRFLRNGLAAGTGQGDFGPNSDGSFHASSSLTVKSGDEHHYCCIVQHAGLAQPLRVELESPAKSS
T1 sequence (P61769 21-119 limits assumed, chain 2 of 2): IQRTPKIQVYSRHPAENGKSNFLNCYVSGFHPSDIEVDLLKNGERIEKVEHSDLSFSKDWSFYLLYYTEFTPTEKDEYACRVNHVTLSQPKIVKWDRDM
B1 was tested, and the Kd was 110 nM.
Work on B2 yielded a Kd of 600 nM.
Binder B3 has a Kd of 280 nM.
With B4 the Kd was 510 nM.
B5 was tested, and the Kd was 300 nM.
Binder B6 has a Kd of 530 nM.
B7 was tested, and the Kd was 180 nM.
B8 gave a Kd of 370 nM.
B9 was tested, and the Kd was 1200 nM.
B10 gave a Kd of 1400 nM.
For B11, the Kd was 36 nM.
B12 was tested, and the Kd was 35 nM.
B13 showed a Kd of 630 nM.
B14 showed a Kd of 85 nM.
Binder B15 has a Kd of 600 nM.
Work on B16 yielded a Kd of 430 nM.
B17 was tested, and the Kd was 640 nM.
For B18, the Kd was 460 nM.
For B19, the Kd was 500 nM.
With B20 the Kd was 400 nM.
In the case of B21, the Kd is reported as 380 nM.
Work on B22 yielded a Kd of 390 nM.
B23 was tested, and the Kd was 400 nM.
With B24 the Kd was 620 nM.
For B25, the Kd was 390 nM.
B26 gave a Kd of 390 nM.
B27 was tested, and the Kd was 390 nM.
For B28, the Kd was 390 nM.
B29 showed a Kd of 370 nM.
B30 gave a Kd of 350 nM.
With B31 the Kd was 400 nM.
B32 was tested, and the Kd was 500 nM.
Work on B33 yielded a Kd of 740 nM.
For B34, the Kd was 28 nM.
In the case of B35, the Kd is reported as 88 nM.
B36 gave a Kd of 410 nM.
Work on B37 yielded a Kd of 150 nM.
Binder B38 has a Kd of 270 nM.
In the case of B39, the Kd is reported as 440 nM.
In the case of B40, the Kd is reported as 330 nM.
For B41, the Kd was 410 nM.
With B42 the Kd was 310 nM.
Work on B43 yielded a Kd of 340 nM.
B44 gave a Kd of 350 nM.
Binder B45 has a Kd of 410 nM.
Work on B46 yielded a Kd of 380 nM.
B47 showed a Kd of 440 nM.

These binders were tested against T2, human FcRn (soluble human FcRn complexed with β2-microglobulin) (human, UniProt P61769 21-119, limits assumed) (assay: SPR, pH 7.0;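 also: antibodies captured on a Protein L sensor chip with human FcRn injected as analyte, KD calculated from fitted association and dissociation rate constants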).
T2 construct: also called hFcRn
T2 sequence (chain, as listed by the source limits assumed, chain 1 of 2): as the sequence (chain, as listed by the source limits assumed, chain 1 of 2) above
T2 sequence (P61769 21-119 limits assumed, chain 2 of 2): as the sequence (P61769 21-119 limits assumed, chain 2 of 2) above
In the case of B48, the Kd is reported as 850 nM.
Binder B49 has a Kd of 680 nM.
B50 showed a Kd of 320 nM.
For B51, the Kd was 310 nM.
B52 was tested, and the Kd was 310 nM.
Work on B53 yielded a Kd of 310 nM.
B54 was tested, and the Kd was 350 nM.
B55 showed a Kd of 220 nM.
Work on B56 yielded a Kd of 290 nM.
Work on B57 yielded a Kd of 310 nM.
Binder B58 has a Kd of 990 nM.
B59 was tested, and the Kd was 660 nM.
